Data: the supplement of paper PMC7125110
± gives the standard error. For some of these results: Fewer inactive variants are shown than the library holds.

B1: glmS ribozyme (parent)
chain: AUAAAAGCGCCAGAACUACAGAAAUGUAGUUGACGAGGAGGAGGUUUAUCGAAUUUUCGGCGGAUGCCUCCAAA

How the values were obtained:
Conditions in all cases: with glucosamine-6-phosphate
glucosamine-6-phosphate [1] = variants of: B1; assay: kcat; higher = faster cleavage; RNA array
In short: (§1)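 Tiles bearing barcoded ribozyme variants, transcribed in situ by E. coli RNA polymerase on sequenced MiSeq chips, were imaged over ~14 h at 37 °C using a hybridised Cy3 probe. Glucosamine-6-phosphate was supplied at 40 μM to 10 mM in HEPES/KCl/Mg(OAc)2 buffer. kobs came from one- or two-exponential decay fits to normalised per-tile medians, and weighted Michaelis–Menten fits then provided kcat and KM.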

glucosamine-6-phosphate [2] = variants of: B1; assay: self-cleavage kobs at 40 uM GlcN6P; higher = faster cleavage; RNA array
In short: as §1

glucosamine-6-phosphate [3] = variants of: B1; assay: self-cleavage kobs at 160 uM GlcN6P; higher = faster cleavage; RNA array
In short: as §1

glucosamine-6-phosphate [4] = variants of: B1; assay: self-cleavage kobs at 640 uM GlcN6P; higher = faster cleavage; RNA array
In short: as §1

glucosamine-6-phosphate [5] = variants of: B1; assay: self-cleavage kobs at 2500 uM GlcN6P; higher = faster cleavage; RNA array
In short: as §1

glucosamine-6-phosphate [6] = variants of: B1; assay: self-cleavage kobs at 10000 uM GlcN6P; higher = faster cleavage; RNA array
In short: as §1

glucosamine-6-phosphate [7] = variants of: B1; assay: KM; higher = weaker cofactor use; RNA array
In short: as §1

Variant | kcat (glucosamine-6-phosphate [1]) | self-cleavage kobs at 40 uM GlcN6P (glucosamine-6-phosphate [2]) | self-cleavage kobs at 160 uM GlcN6P (glucosamine-6-phosphate [3]) | self-cleavage kobs at 640 uM GlcN6P (glucosamine-6-phosphate [4]) | self-cleavage kobs at 2500 uM GlcN6P (glucosamine-6-phosphate [5]) | self-cleavage kobs at 10000 uM GlcN6P (glucosamine-6-phosphate [6]) | KM (glucosamine-6-phosphate [7])
U54G A64G | 0.0237 ± 0.011 s⁻¹ | 0.000837 ± 0.0001 s⁻¹ | 0.00149 ± 0.00039 s⁻¹ | 0.0071 ± 0.0013 s⁻¹ | 0.0145 ± 0.0059 s⁻¹ | 0.0227 ± 0.0052 s⁻¹ | –
U54G A64C | 0.000177 ± 1.8e-05 s⁻¹ | < 1e-05 s⁻¹ | – | 3.56e-05 ± 1.3e-05 s⁻¹ | 0.000116 ± 2.4e-05 s⁻¹ | 0.000143 ± 1.8e-05 s⁻¹ | 2030 ± 590 µM
U54G C58U C67U | 4.43e-05 ± 9.6e-06 s⁻¹ | – | – | – | 5.48e-05 ± 1.7e-05 s⁻¹ | 3.78e-05 ± 1.2e-05 s⁻¹ | –
U54A U65G C67U | 0.00302 ± 0.00027 s⁻¹ | – | 0.000109 ± 3.7e-05 s⁻¹ | 0.000434 ± 9.2e-05 s⁻¹ | – | 0.00217 ± 0.00041 s⁻¹ | 3900 ± 500 µM
A53U U54G | 0.0452 ± 0.016 s⁻¹ | 0.000521 ± 4.8e-05 s⁻¹ | – | 0.00468 ± 0.001 s⁻¹ | 0.0161 ± 0.0061 s⁻¹ | 0.0354 ± 0.0056 s⁻¹ | 3780 ± 1600 µM
A53U U54A | 0.0314 ± 0.0026 s⁻¹ | 0.000727 ± 0.00011 s⁻¹ | 0.00236 ± 0.00084 s⁻¹ | 0.00817 ± 0.0019 s⁻¹ | 0.0161 ± 0.0071 s⁻¹ | 0.0279 ± 0.0062 s⁻¹ | 1760 ± 180 µM
A53C U56A | 0.00313 ± 0.00063 s⁻¹ | 4.81e-05 ± 7e-06 s⁻¹ | 0.000205 ± 3.7e-05 s⁻¹ | 0.000467 ± 9.1e-05 s⁻¹ | 0.00171 ± 0.00027 s⁻¹ | 0.00243 ± 0.00038 s⁻¹ | 2700 ± 730 µM
U57A C71G | 5.3e-05 ± 1.6e-05 s⁻¹ | – | – | – | – | – | –
U57G C67A | 2.87e-05 ± 6.3e-06 s⁻¹ | – | – | – | – | 2.45e-05 ± 1.2e-05 s⁻¹ | –
U57G C67U | 3.05e-05 ± 1e-05 s⁻¹ | – | – | – | 4.91e-05 ± 1.5e-05 s⁻¹ | 2.19e-05 ± 1e-05 s⁻¹ | –
U54C U56G | 0.0154 ± 0.0051 s⁻¹ | 0.000282 ± 4.7e-05 s⁻¹ | 0.000649 ± 0.00019 s⁻¹ | 0.0032 ± 0.0011 s⁻¹ | – | 0.0133 ± 0.0027 s⁻¹ | 2680 ± 1100 µM
U54C U56C | 0.0062 ± 0.0012 s⁻¹ | 7.75e-05 ± 1.4e-05 s⁻¹ | 0.000223 ± 3.3e-05 s⁻¹ | 0.00084 ± 0.00013 s⁻¹ | 0.002 ± 0.00042 s⁻¹ | 0.00471 ± 0.00069 s⁻¹ | 4050 ± 1000 µM
U55A G66U | 0.00223 ± 0.00093 s⁻¹ | 7.9e-05 ± 1.3e-05 s⁻¹ | 0.000202 ± 5.4e-05 s⁻¹ | 0.000355 ± 7.1e-05 s⁻¹ | 0.00136 ± 0.00021 s⁻¹ | 0.00195 ± 0.00029 s⁻¹ | –
U55C C71U | 0.00258 ± 5.1e-05 s⁻¹ | 6.36e-05 ± 1e-05 s⁻¹ | 0.000225 ± 3.7e-05 s⁻¹ | 0.000749 ± 0.00015 s⁻¹ | 0.00157 ± 0.00021 s⁻¹ | 0.00222 ± 0.00029 s⁻¹ | 1620 ± 49 µM
U55C C71G | 0.000144 ± 9.8e-06 s⁻¹ | – | – | 3.46e-05 ± 9.7e-06 s⁻¹ | 8.92e-05 ± 1.3e-05 s⁻¹ | 0.000118 ± 1.9e-05 s⁻¹ | 1810 ± 300 µM
A53G C58G | 0.000112 ± 2.4e-06 s⁻¹ | – | – | 3.28e-05 ± 1.1e-05 s⁻¹ | 6.79e-05 ± 1.2e-05 s⁻¹ | 9.67e-05 ± 9.9e-06 s⁻¹ | 1580 ± 120 µM
U54G U65A | 0.00375 ± 0.00091 s⁻¹ | 9.07e-05 ± 1.5e-05 s⁻¹ | 0.000213 ± 3.8e-05 s⁻¹ | 0.0008 ± 0.00014 s⁻¹ | 0.00199 ± 0.00034 s⁻¹ | 0.00315 ± 0.00065 s⁻¹ | 2250 ± 730 µM
U55C U69G | 1.99e-05 ± 1.9e-06 s⁻¹ | – | – | – | – | – | –
U55C U69C | 0.00119 ± 0.00046 s⁻¹ | – | – | 6.77e-05 ± 2.8e-05 s⁻¹ | 0.000177 ± 2.6e-05 s⁻¹ | 0.000523 ± 0.00012 s⁻¹ | –
A53C U55A | 0.00829 ± 0.0024 s⁻¹ | 0.000204 ± 1.9e-05 s⁻¹ | 0.000453 ± 6.9e-05 s⁻¹ | 0.00172 ± 0.00021 s⁻¹ | 0.00411 ± 0.00049 s⁻¹ | 0.00772 ± 0.00094 s⁻¹ | 2150 ± 840 µM
U57C C67A | 3.95e-05 ± 1.7e-06 s⁻¹ | – | – | 3.33e-05 ± 1.5e-05 s⁻¹ | 3.6e-05 ± 1.1e-05 s⁻¹ | 3.97e-05 ± 1.2e-05 s⁻¹ | 157 ± 71 µM
A53U U55G A64C | 9.81e-05 ± 5.1e-06 s⁻¹ | – | – | – | 4.12e-05 ± 1.6e-05 s⁻¹ | 7.31e-05 ± 1.4e-05 s⁻¹ | 3420 ± 520 µM
A53G U56C | 0.00882 ± 0.0023 s⁻¹ | 0.000169 ± 2.5e-05 s⁻¹ | 0.000447 ± 0.00011 s⁻¹ | 0.00135 ± 0.00025 s⁻¹ | 0.00428 ± 0.001 s⁻¹ | 0.0073 ± 0.0011 s⁻¹ | 2730 ± 950 µM
A53G U56G | 0.0121 ± 0.004 s⁻¹ | 0.000497 ± 5.8e-05 s⁻¹ | 0.00116 ± 0.00024 s⁻¹ | 0.00411 ± 0.00066 s⁻¹ | 0.00635 ± 0.0012 s⁻¹ | 0.0161 ± 0.0025 s⁻¹ | 1150 ± 530 µM
U54G C70G | 0.000119 ± 2.1e-05 s⁻¹ | 8.74e-05 ± 8.1e-06 s⁻¹ | 0.000128 ± 1.7e-05 s⁻¹ | 0.000182 ± 2.2e-05 s⁻¹ | 0.000182 ± 2.5e-05 s⁻¹ | 9.76e-05 ± 9.2e-06 s⁻¹ | –
U56G C68U | 0.00243 ± 0.00033 s⁻¹ | 6.61e-05 ± 1.1e-05 s⁻¹ | 0.000217 ± 4.7e-05 s⁻¹ | 0.000551 ± 9.7e-05 s⁻¹ | 0.00206 ± 0.00046 s⁻¹ | 0.00208 ± 0.00021 s⁻¹ | 1660 ± 380 µM
U56G C68G | 6.61e-05 ± 1e-05 s⁻¹ | – | – | – | 2.78e-05 ± 1.4e-05 s⁻¹ | 5.46e-05 ± 8.1e-06 s⁻¹ | –
A53U U57A | 0.000262 ± 3e-05 s⁻¹ | – | – | 5.19e-05 ± 8e-06 s⁻¹ | 0.000113 ± 1.4e-05 s⁻¹ | 0.000215 ± 3e-05 s⁻¹ | 2870 ± 600 µM
